Key:
α2-纤溶酶抑制剂(α2-AP) = target: T1, α2-纤溶酶抑制剂(α2-AP) (UniProt P08697 40-491, limits assumed); assay: summing-up of the examples (ELISA specificity, Example 4; table 2 not shown)
T1 construct: also called α2-antiplasmin; 游离态的α2-AP
T1 sequence (looked up): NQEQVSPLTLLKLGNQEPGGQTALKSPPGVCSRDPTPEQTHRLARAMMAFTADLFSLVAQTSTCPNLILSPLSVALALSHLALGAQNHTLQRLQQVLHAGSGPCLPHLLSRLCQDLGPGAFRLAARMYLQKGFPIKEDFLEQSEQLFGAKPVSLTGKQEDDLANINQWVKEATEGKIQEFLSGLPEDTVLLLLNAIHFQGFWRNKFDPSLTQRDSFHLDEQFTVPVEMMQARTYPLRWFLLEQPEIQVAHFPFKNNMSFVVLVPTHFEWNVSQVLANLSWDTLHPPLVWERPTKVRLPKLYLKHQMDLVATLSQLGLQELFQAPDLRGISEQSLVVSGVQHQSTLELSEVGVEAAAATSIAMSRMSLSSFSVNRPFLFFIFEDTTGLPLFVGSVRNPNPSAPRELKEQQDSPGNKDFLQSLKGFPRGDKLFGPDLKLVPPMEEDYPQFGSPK

纤溶酶原(Plg) = target: T2, 纤溶酶原(Plg) (UniProt P00747 20-810); assay: as above
T2 construct: Free precursor, used as coating antigen in ELISA; also called Plasminogen; 游离态的Plg

纤溶酶-α2纤溶酶抑制剂复合物(PIC) = target: T3, 纤溶酶-α2纤溶酶抑制剂复合物(PIC) (UniProt P00747 97-810; P08697 40-491, limits assumed); assay: SPR (BIAcore 3000), antibody captured by goat anti-mouse IgG Fc on CM5, PIC as analyte
T3 construct: also called PIC抗原; PIC复合物
T3 sequence (P00747 97-810 limits assumed, one chain of several): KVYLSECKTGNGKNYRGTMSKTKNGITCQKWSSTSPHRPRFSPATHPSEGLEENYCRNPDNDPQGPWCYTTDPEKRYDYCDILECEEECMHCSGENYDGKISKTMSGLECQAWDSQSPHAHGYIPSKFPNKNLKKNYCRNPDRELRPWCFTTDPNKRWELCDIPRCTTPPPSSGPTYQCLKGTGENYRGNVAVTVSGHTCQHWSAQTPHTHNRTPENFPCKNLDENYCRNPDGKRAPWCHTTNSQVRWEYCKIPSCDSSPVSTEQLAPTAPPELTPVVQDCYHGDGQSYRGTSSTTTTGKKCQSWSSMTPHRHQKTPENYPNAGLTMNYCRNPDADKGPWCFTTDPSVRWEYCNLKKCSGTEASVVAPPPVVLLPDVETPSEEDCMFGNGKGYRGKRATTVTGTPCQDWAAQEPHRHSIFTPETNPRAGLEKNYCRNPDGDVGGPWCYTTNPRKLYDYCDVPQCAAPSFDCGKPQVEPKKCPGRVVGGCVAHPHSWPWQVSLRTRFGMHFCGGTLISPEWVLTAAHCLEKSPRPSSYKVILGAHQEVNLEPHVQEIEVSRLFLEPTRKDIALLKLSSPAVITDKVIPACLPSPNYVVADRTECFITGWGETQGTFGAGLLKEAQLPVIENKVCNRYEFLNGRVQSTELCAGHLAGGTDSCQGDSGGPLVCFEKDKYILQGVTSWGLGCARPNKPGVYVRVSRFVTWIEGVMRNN

T2 sequence (P00747 20-810 limits assumed): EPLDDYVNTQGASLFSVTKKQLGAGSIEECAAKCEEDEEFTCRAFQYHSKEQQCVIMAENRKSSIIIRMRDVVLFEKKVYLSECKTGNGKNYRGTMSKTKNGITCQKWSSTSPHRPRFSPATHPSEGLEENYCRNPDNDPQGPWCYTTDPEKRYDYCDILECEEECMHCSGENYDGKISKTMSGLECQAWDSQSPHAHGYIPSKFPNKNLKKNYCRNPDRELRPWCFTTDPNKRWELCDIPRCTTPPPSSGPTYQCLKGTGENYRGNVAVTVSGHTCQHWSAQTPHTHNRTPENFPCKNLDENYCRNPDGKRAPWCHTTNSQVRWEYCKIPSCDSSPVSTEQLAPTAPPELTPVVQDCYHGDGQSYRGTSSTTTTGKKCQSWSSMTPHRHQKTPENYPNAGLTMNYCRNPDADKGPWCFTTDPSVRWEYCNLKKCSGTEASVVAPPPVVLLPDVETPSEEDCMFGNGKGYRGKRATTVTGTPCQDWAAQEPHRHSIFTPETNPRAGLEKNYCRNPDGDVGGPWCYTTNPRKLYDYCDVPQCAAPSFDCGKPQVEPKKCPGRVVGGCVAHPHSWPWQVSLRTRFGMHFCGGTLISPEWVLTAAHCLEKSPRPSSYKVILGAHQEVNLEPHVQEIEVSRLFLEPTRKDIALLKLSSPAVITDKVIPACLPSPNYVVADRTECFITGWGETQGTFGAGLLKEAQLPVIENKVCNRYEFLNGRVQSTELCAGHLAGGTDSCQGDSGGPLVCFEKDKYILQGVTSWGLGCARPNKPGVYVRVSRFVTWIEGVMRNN

Binder | binding result (α2-纤溶酶抑制剂(α2-AP)) | binding result (纤溶酶原(Plg)) | Kd (纤溶酶-α2纤溶酶抑制剂复合物(PIC)) | koff (纤溶酶-α2纤溶酶抑制剂复合物(PIC)) | kon (纤溶酶-α2纤溶酶抑制剂复合物(PIC))
PIC抗体(WT2) (antibody, mouse IgG1, kappa, V domains shown, That VL2/VH2 belong to 5B3F6 (WT2) follows from the order of naming, not from an explicit sentence; also called 5B3F6; PIC单抗(WT2)) VH: QVQLQQPGAELVRPGASVKLSCKASGYTFTSSWMHWVKQRPEQGLEWIGYIDPYDSETHYNQKFKDKAILTVDKSSSTAYMQLSSLTSEDSAVYYCARGYDRSFDYWGQGTTLTVSS VL: DIKMTQSPSSMFASLGERVTITCKASQDIKSFLNWYQQKPWRSPKTLIYYATSLADGVPSRFSGSGSGQDFSLTISSLESDDAATYYCLQHGESPFTFGGGTKLEIKR | no binding | no binding | 1.21 nM | 9.54e-05 s⁻¹ | 78900 M⁻¹ s⁻¹
PIC抗体(WT1) (antibody, mouse IgG1, kappa, V domains shown, that VL1/VH1 belong to 1C2B4 (WT1) follows from the order of naming, not from an explicit sentence; also called 1C2B4; PIC单抗(WT1)) VH: QVQLQQSGPELVKPGASVKLSCKASGNAFSSSWMNWVKQRPGQGLEWIGRIYPGDGDTNYNGKFKGKATLTVDKSSSTVYMQLSSLTSVDSAVYFCGRGNPTTAYAMDYWGQGTSVTVSS VL: DIVLTQSPASLAVSLGQRATLSCRASESVDSFGYSFMHWYQQNPGQPPKLLIYRASNLESGIPARFSGSGSRTDFTLTINPVEADDVATYFCQQTNEDPYTFGGGAKLEIKR | no binding | no binding | 1.29 nM | 8.54e-05 s⁻¹ | 65900 M⁻¹ s⁻¹

Reference: patent publication CN117126283A (SHENZHEN NEW IND BIOMEDICAL ENGINEERING CO LTD, dated 2023)
